Laboratory results from patent US20240261333A1, “NOVEL TARGETS FOR ENHANCING ANTI-TUMOR IMMUNITY” (THE BROAD INSTITUTE, INC., priority 2021, published 2024).

T1: B3GNT2 (Homo sapiens, UniProt Q9NY97)
T1 construct: The respective ORFs of candidate genes [CD274 (NM_014143), MCL1 (NM_021960), JUNB (NM_002229), and B3GNT2 (NM_006577)] were synthesized; expressed in transfected cells; host or cells: A375 melanoma cells (lentiviral ORF overexpression)
T1 sequence (Q9NY97 1-397): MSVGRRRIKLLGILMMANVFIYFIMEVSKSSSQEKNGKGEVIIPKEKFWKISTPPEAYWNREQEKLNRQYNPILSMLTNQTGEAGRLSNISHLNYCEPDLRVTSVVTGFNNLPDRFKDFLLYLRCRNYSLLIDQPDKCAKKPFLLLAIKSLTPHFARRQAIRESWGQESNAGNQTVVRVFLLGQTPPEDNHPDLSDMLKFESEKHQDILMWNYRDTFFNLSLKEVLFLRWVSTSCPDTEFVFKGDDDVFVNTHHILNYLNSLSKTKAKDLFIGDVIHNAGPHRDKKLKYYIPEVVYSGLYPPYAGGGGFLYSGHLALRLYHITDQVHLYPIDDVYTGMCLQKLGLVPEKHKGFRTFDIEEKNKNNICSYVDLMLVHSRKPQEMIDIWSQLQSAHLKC


Biological target: T1, B3GNT2
Assay: Co-IP of FLAG-tagged B3GNT2 followed by mass spectrometry
Type: cell-based
Set-up: C-term IgG / C-term flag: unit not given here
Conditions: mass spectrometry count, unit not given; for C-term flag / N-term FLAG: Co-IP with FLAG antibody; for C-term flag / C-term IgG: C-terminally FLAG-tagged B3GNT2; for N-term FLAG / N-term IgG: N-terminally FLAG-tagged B3GNT2; for C-term IgG / N-term IgG: Co-IP with IgG control antibody
Summary of the method: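 FLAG-tagged B3GNT2 immunoprecipitated from cell lysate (HEPES, 1% Triton X-100, 150 mM NaCl) with anti-FLAG versus […], overnight at 4° C, then captured on Protein A/G magnetic beads for 4 h. Two biological replicates per condition. Peptides fractionated and analyzed by nano-LC on an Orbitrap Elite in data-dependent mode.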

Row | C-term flag | N-term FLAG | C-term IgG | N-term IgG | Molecule
1 | 9 | 4 | 0 | 0 | SLC25A3 (protein) AVEEQYSCDYGSGRFFILCGLGGIISCGTTHTALVPLDLVKCRMQVDPQKYKGIFNGFSVTLKEDGVRGLAKGWAPTFLGYSMQGLCKFGFYEVFKVLYSNMLGEENTYLWRTSLYLAASASAEFFADIALAPMEAAKVRIQTQPGYANTLRDAAPKMYKEEGLKAFYKGVAPLWMRQIPYTMMKFACFERTVEALYKFVVPKPRSECSKPEQLVVTFVAGYIAGVFCAIVSHPADSVVSVLNKEKGSSASLVLKRLGFKGVWKGLFARIIMIGTLTALQWFIYDSVKVYFRLPRPPPPEMPESLKKKLGLTQ
2 | 8 | 5 | 0 | 0 | LOXL4 (protein) QSLGTTKLRLVGPESKPEEGRLEVLHQGQWGTVCDDNFAIQEATVACRQLGFEAALTWAHSAKYGQGEGPIWLDNVRCVGTESSLDQCGSNGWGVSDCSHSEDVGVICHPRRHRGYLSETVSNALGPQGRRLEEVRLKPILASAKQHSPVTEGAVEVKYEGHWRQVCDQGWTMNNSRVVCGMLGFPSEVPVDSHYYRKVWDLKMRDPKSRLKSLTNKNSFWIHQVTCLGTEPHMANCQVQVAPARGKLRPACPGGMHAVVSCVAGPHFRPPKTKPQRKGSWAEEPRVRLRSGAQVGEGRVEVLMNRQWGTVCDHRWNLISASVVCRQLGFGSAREALFGARLGQGLGPIHLSEVRCRGYERTLSDCPALEGSQNGCQHENDAAVRCNVPNMGFQNQVRLAGGRIPEEGLLEVQVEVNGVPRWGSVCSENWGLTEAMVACRQLGLGFAIHAYKETWFWSGTPRAQEVVMSGVRCSGTELALQQCQRHGPVHCSHGGGRFLAGVSCMDSAPDLVMNAQLVQETAYLEDRPLSQLYCAHEENCLSKSADHMDWPYGYRRLLRFSTQIYNLGRTDFRPKTGRDSWVWHQCHRHYHSIEVFTHYDLLTLNGSKVAEGHKASFCLEDTNCPTGLQRRYACANFGEQGVTVGCWDTYRHDIDCQWVDITDVGPGNYIFQVIVNPHYEVAESDFSNNMLQCRCKYDGHRVWLHNCHTGNSYPANAELSLEQEQRLRNNLI

Further lines, the molecule ahead of its results:

Row | Molecule | C-term flag | N-term FLAG | C-term IgG | N-term IgG
3 | GNAS (protein) MGVRNCLYGNNMSGQRDIPPEIGEQPEQPPLEAPGAAAPGAGPSPAEEMETEPPHNEPIPVENDGEACGPPEVSRPNFQVLNPAFREAGAHGSYSPPPEEAMPFEAEQPSLGGFWPTLEQPGFPSGVHAGLEAFGPALMEPGAFSGARPGLGGYSPPPEEAMPFEFDQPAQRGCSQLLLQVPDLAPGGPGAAGVPGAPPEEPQALRPAKAGSRGGYSPPPEETMPFELDGEGFGDDSPPPGLSRVIAQVDGSSQFAAVAASSAVRLTPAANAPPLWVPGAIGSPSQEAVRPPSNFTGSSPWMEISGPPFEIGSAPAGVDDTPVNMDSPPIALDGPPIKVSGAPDKRERAERPPVEEEAAEMEGAADAAEGGKVPSPGYGSPAAGAASADTAARAAPAAPADPDSGATPEDPDSGTAPADPDSGAFAADPDSGAAPAAPADPDSGAAPDAPADPDSGAAPDAPADPDAGAAPEAPAAPAAAETRAAHVAPAAPDAGAPTAPAASATRAAQVRRAASAAPASGARRKIHLRPPSPEIQAADPPTPRPTRASAWRGKSESSRGRRVYYDEGVASSDDDSSGDESDDGTSGCLRWFQHRRNRRRRKPQRNLLRNFLVQAFGGCFGRSESPQPKASRSLKVKKVPLAEKRRQMRKEALEKRAQKRAEKKRSKLIDKQLQDEKMGYMCTHRLLLLGAGESGKSTIVKQMRILHVNGFNGEGGEEDPQAARSNSDGEKATKVQDIKNNLKEAIETIVAAMSNLVPPVELANPENQFRVDYILSVMNVPDFDFPPEFYEHAKALWEDEGVRACYERSNEYQLIDCAQYFLDKIDVIKQADYVPSDQDLLRCRVLTSGIFETKFQVDKVNFHMFDVGGQRDERRKWIQCFNDVTAIIFVVASSSYNMVIREDNQTNRLQEALNLFKSIWNNRWLRTISVILFLNKQDLLAEKVLAGKSKIEDYFPEFARYTTPEDATPEPGEDPRVTRAKYFIRDEFLRISTASGDGRHYCYPHFTCAVDTENIRRVFNDCRDIIQRMHLRQYELL | 2 | 0 | 0 | 0
4 | OS9 (protein) GGVGSLNLEELSEMRYGIEILPLPVMGGQSQSSDVVIVSSKYKQRYECRLPAGAIHFQREREEETPAYQGPGIPELLSPMRDAPCLLKTKDWWTYEFCYGRHIQQYHMEDSEIKGEVLYLGYYQSAFDWDDETAKASKQHRLKRYHSQTYGNGSKCDLNGRPREAEVRFLCDEGAGISGDYIDRVDEPLSCSYVLTIRTPRLCPHPLLRPPPSAAPQAILCHPSLQPEEYMAYVQRQADSKQYGDKIIEELQDLGPQVWSETKSGVAPQKMAGASPTKDDSKDSDFWKMLNEPEDQAPGGEEVPAEEQDPSPEAADSASGAPNDFQNNVQVKVIRSPADLIRFIEELKGGTKKGKPNIGQEQPVDDAAEVPQREPEKERGDPERQREMEEEEDEDEDEDEDEDERQLLGEFEKELEGILLPSDRDRLRSETEKELDPDGLKKESERDRAMLALTSTLNKLIKRLEEKQSPELVKKHKKKRVVPKKPPPSPQPTEEDPEHRVRVRVTKLRLGGPNQDLTVLEMKRENPQLKQIEGLVKELLEREGLTAAGKIEIKIVRPWAEGTEEGARWLTDEDTRNLKEIFFNILVPGAEEAQKERQRQKELESNYRRVWGSPGGEGTGDLDEFDF | 9 | 3 | 0 | 0
5 | DPM1 (protein, UniProt O60762 2-260, looked up) Dolichol-phosphate …: ASLEVSRSPRRSRRELEVRSPRQNKYSVLLPTYNERENLPLIVWLLVKSFSESGINYEIIIIDDGSPDGTRDVAEQLEKIYGSDRILLRPREKKLGLGTAYIHGMKHATGNYIIIMDADLSHHPKFIPEFIRKQKEGNFDIVSGTRYKGNGGVYGWDLKRKIISRGANFLTQILLRPGASDLTGSFRLYRKEVLEKLIEKCVSKGYVFQMEMIVRARQLNYTIGEVPISFVDRVYGESKLGGNEIVSFLKGLLTLFATT | 8 | 4 | 0 | 0
6 | TRIM28 (protein) AASAAAASAAAASAASGSPGPGEGSAGGEKRSTAPSAAASASASAAASSPAGGGAEALELLEHCGVCRERLRPEREPRLLPCLHSACSACLGPAAPAAANSSGDGGAAGDGTVVDCPVCKQQCFSKDIVENYFMRDSGSKAATDAQDANQCCTSCEDNAPATSYCVECSEPLCETCVEAHQRVKYTKDHTVRSTGPAKSRDGERTVYCNVHKHEPLVLFCESCDTLTCRDCQLNAHKDHQYQFLEDAVRNQRKLLASLVKRLGDKHATLQKSTKEVRSSIRQVSDVQKRVQVDVKMAILQIMKELNKRGRVLVNDAQKVTEGQQERLERQHWTMTKIQKHQEHILRFASWALESDNNTALLLSKKLIYFQLHRALKMIVDPVEPHGEMKFQWDLNAWTKSAEAFGKIVAERPGTNSTGPAPMAPPRAPGPLSKQGSGSSQPMEVQEGYGFGSGDDPYSSAEPHVSGVKRSRSGEGEVSGLMRKVPRVSLERLDLDLTADSQPPVFKVFPGSTTEDYNLIVIERGAAAAATGQPGTAPAGTPGAPPLAGMAIVKEEETEAAIGAPPTATEGPETKPVLMALAEGPGAEGPRLASPSGSTSSGLEVVAPEGTSAPGGGPGTLDDSATICRVCQKPGDLVMCNQCEFCFHLDCHLPALQDVPGEEWSCSLCHVLPDLKEEDGSLSLDGADSTGVVAKLSPANQRKCERVLLALFCHEPCRPLHQLATDSTFSLDQPGGTLDLTLIRARLQEKLSPPYSSPQEFAQDVGRMFKQFNKLTEDKADVQSIIGLQRFFETRMNEAFGDTKFSAVLVEPPPMSLPGAGLSSQELSGGPGDGP | 8 | 4 | 0 | 0
